{"source": "patent US8796209B2", "about": "“Compositions and methods related to anti-FGF agents” (The Regents of the University of California, priority 2005, dated 2014)", "molecules": {"B1": {"name": "γC: globular carboxyl-terminal domain of the fibrinogen γ-chain, a known ligand for αvβ3 (protein)", "chain": "KDCQDIANKGAKQSGLYFIKPLKANQQFLVYCEIDGSGNGWTVFQKRLDGSVDFKKNWIQYKEGFGHLSPTGTTEFWLGNEKIHLISTQSAIPYALRVELEDWNGRTSTADYAMFKVGPEADKYRLTYAYFAGGDAGDAFDGFDFGDDPSDKFFTSHNGMQFSTWDNDNDKFEGNCAEQDGSGWWMNKCHAGHLNGVYYQGGTYSKASTPNGYDNGIIWATWKTRWYSMKKTTMKIIPFNRLTIGEGQQHHLGGAKQAGDV"}}, "key": {"integrin αvβ3": {"target": "T1, integrin αvβ3 (Homo sapiens, UniProt P05106+P06756)", "T1 construct": "using the soluble αv and β3 expression constructs provided by Tim Springer; made in house; host or cells: CHO K1", "T1 sequence (P06756 31-992 limits assumed)": "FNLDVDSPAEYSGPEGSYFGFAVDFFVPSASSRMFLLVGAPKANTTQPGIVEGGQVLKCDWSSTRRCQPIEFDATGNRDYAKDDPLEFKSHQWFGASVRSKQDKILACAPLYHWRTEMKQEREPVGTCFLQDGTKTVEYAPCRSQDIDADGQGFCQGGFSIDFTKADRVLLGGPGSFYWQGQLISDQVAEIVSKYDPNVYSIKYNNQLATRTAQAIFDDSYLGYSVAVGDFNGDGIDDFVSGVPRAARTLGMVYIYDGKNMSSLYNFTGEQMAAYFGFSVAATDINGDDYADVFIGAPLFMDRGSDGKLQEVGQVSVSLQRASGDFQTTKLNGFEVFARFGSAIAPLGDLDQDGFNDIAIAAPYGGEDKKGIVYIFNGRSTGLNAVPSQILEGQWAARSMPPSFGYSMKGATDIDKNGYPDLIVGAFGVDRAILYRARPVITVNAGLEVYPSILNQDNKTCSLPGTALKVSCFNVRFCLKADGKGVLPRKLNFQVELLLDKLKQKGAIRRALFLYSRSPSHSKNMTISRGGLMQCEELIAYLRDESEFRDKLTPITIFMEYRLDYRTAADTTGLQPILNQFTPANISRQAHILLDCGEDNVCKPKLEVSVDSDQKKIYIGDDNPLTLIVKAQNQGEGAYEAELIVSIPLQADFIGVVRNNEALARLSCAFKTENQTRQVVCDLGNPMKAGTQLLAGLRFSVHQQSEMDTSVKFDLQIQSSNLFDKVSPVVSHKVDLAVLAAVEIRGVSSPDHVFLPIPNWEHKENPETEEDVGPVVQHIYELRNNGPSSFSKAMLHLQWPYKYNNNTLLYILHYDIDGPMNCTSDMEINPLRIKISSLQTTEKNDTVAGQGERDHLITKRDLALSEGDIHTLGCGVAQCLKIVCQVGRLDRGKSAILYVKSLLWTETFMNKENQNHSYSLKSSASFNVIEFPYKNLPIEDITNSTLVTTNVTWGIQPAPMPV", "T1 sequence (P05106 27-718 limits assumed)": "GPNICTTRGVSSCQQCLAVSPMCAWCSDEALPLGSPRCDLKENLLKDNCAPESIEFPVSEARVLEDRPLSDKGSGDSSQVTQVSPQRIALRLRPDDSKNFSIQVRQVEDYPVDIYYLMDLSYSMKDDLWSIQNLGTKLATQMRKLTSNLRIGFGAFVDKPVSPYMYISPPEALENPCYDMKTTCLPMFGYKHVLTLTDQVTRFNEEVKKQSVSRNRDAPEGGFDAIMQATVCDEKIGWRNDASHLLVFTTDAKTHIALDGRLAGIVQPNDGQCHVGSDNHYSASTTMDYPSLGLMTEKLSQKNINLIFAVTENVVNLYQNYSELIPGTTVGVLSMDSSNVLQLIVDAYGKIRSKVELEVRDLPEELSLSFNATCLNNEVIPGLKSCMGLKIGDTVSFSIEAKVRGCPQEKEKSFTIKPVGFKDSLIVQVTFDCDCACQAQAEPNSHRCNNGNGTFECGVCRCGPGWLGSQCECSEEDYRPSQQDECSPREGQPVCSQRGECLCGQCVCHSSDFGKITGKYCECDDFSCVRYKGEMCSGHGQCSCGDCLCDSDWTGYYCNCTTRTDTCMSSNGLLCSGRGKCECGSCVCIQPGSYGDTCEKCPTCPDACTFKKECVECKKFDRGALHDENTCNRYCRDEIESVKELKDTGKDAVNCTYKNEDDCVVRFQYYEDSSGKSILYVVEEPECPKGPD", "experiment": "Soluble integrin binding assay (ELISA-type), soluble αvβ3 on immobilized FGF", "conditions": "coated at 10 μg/ml; soluble αvβ3 5 μg/ml, 1 mM MnCl2", "description": "Wells of 96-well microtiter plates were coated with 10 μg/ml FGF-1 or FGF-2 and remaining protein binding sites were blocked with 1 mg/ml BSA. Recombinant soluble αvβ3 (50 μl/well at 5 μg/ml in Hepes-Tyrode buffer supplemented with 1 mM MnCl2) was added to wells and incubated for 1 h at room temperature. Soluble αvβ3 was incubated with 10 μg/ml 7E3 (white bar) or mouse IgG (black bar) for 10 min on ice prior to adding to the wells. BSA (circle) was used as a negative control. Data is shown as means+/−SD of triplicate experiments.\nFGF-1 (10 μg/m) was heat-treated at indicated temperature for 10 min prior to immobilization. Binding of soluble αvβ3 was determined as described in FIG. 1. Data is shown as percent binding+/−SD of triplicate experiments.\nAmino acid residues in the integrin-binding site or in the FGFR-binding site were mutated individually or in groups. Wild-type (diamond), R50E (open square), N33A (closed square), 4xE (circle), 3xA (triangle) were coated to a plastic plate various concentration as indicated and the binding of soluble αvβ3 was determined as described in FIG. 2. BSA (cross) was used as a negative control. […] “4xE” represents the K127E/K128E/K133E/R134E mutant. “3xA” represents the E102A/Y109A/Q110A mutant.\nBinding assays were performed as previously described (Takagi et al., 2001). Native or heat-denatured FGF-1 in 0.1 M carbonate buffer, pH 9.4, were incubated in a polystyrene 96-well non-tissue culture plates surface overnight at 4° C. Unbound FGF-1 was removed, and 200 μl of 0.1% bovine serum albumin in PBS was added and incubated for 60 min at room temperature. The wells were washed with PBS and soluble integrin αvβ3 in 50 μl in Hepes-Tyrode buffer supplemented with 1 mM Mn^2+ were added to the wells and incubated at room temperature for 60 min. After non-bound soluble integrin were removed by rinsing the wells with the same buffer. Horseradish peroxidase (HRP) conjugated anti His-tag mouse IgG was added to well and incubated 60 min. Non-bound antibodies were removed by rinsing the wells with the same buffer, bound integrins were quantified by measuring the absorbance of 450 nm developed from adding the substrate (3,3′,5,5′-tetramethylbenzidine) of HRP unbound protein was aspirated, and the wells were washed with PBS three times."}, "ERK1/2": {"system": "ERK1/2", "experiment": "MAP kinase (ERK1/2) activation, western blot", "type": "cell-based, mouse", "conditions": "5 μg/ml heparin", "description": "Serum starved Balb3T3 cells were stimulated with wild-type and mutant FGF-1s (5 ng/ml) in the presence or absence of 5 μg/ml heparin for 10 min at 37° C. Cell lysates were analyzed by western blotting with anti-phospho ERK1/2 (anti phospho-ERK). Total amount of ERK1/2 in each lane was determined by blotting with anti-ERK1/2. Controls contain medium alone (none) or medium containing 10% fetal calf serum (FCS).\nBalb3T3 cells were grown to confluence and serum starved in DMEM supplemented with 0.4% fetal calf serum for 24 h, and stimulated with wild type and mutant FGF-1 (5 ng/ml) in the presence or absence of 5 μg/ml heparin for 10 min at 37° C. Cells were washed twice with ice-cold PBS and lysed with the lysis buffer (20 mM Tris-HCI pH 8.0, 120 mM NaCl, 5 mM EDTA, 0.5% Triton-X100, 1 mM PMSF, 1 mM DTT, 10 mM NaF, 1 mM Na3VO4, 10 μg/ml aprotinin). Cell lysates were separated on 4-12% NuPAGE Bis-Tris Gel (invitrogen). Proteins were then transferred to PVDF membranes (Milli-pore), probed with antibodies, and bound antibodies were detected by HRP-conjugated anti-mouse IgG and chemiluminescence HRP substrate (Pierce). The antibodies used were anti-phospho-ERK1/2, anti-ERK1/2 (Cell Signaling Technology)."}, "FGF-1-αvβ3 interaction": {"target": "T2, FGF-1-αvβ3 interaction (Homo sapiens, UniProt P05106+P06756)", "T2 construct": "using the soluble αv and β3 expression constructs provided by Tim Springer; made in house; host or cells: CHO K1 (integrin); E. coli BL21 (DE3) (FGF-1)", "T2 sequence (P06756 31-992 limits assumed)": "as the sequence (P06756 31-992 limits assumed) above", "T2 sequence (P05106 27-718 limits assumed)": "as the sequence (P05106 27-718 limits assumed) above", "experiment": "Inhibition of FGF-1-αvβ3 interaction by γC", "type": "binding", "conditions": "immobilized FGF-1 10 μg/ml, increasing concentrations of soluble γC", "description": "FGF-1 (10 μg/m) was immobilized to the plastic plate. Soluble αvβ3 was added to the wells together with increasing concentrations of soluble γC. Binding was determined as described in A. Data is shown as percent binding+/−SD of triplicate experiments with no addition of γC as 100.\nFGF-1 (10 μg/ml) was immobilized to wells of 96-well plates. Soluble αvβ3 integrin was added to the wells with various concentration of γC. Bound integrin was detected by using HRP-conjugated anti-6His antibodies and its substrate as described above."}}}
{"molecule": "FGF-2: basic FGF, used as a positive control for αvβ3 binding", "values": [{"measurement": "binding of soluble αvβ3 to the immobilized protein", "setting": "integrin αvβ3", "result": "bound"}]}
{"molecule": "heparin [reference compound]", "values": [{"measurement": "effect of heparin on FGF-1-induced ERK1/2 activation", "setting": "ERK1/2", "result": "did not enhance"}]}
{"molecule": "B1", "values": [{"measurement": "blocking of FGF-1-αvβ3 interaction", "setting": "FGF-1-αvβ3 interaction", "result": "effectively block"}]}
